Results reported in patent US20150344570A1 (published 2015).

T1: FcγRIIb (human, UniProt P31994 43-217)
T1 construct: extracellular domain; Soluble extracellular domain with C-terminal His tag, used as analyte in Biacore; also called FcgRIIb; 2b; not shown: His tag attached to the C terminus
T1 sequence (looked up): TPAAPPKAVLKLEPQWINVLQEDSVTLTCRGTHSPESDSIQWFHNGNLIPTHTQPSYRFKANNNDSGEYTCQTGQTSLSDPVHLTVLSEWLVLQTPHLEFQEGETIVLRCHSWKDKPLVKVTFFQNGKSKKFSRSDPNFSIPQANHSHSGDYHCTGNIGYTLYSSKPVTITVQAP


What was measured:
FcγRIa = molecular target: T2, FcγRIa (human, UniProt P12314 16-292); test: SPR (Biacore), antibody captured, FcγR as analyte; relative to GpH7-A5/GpH7-B3/GpL16-k0 = 100
T2 construct: extracellular domain; Soluble extracellular domain with C-terminal His tag, used as analyte in Biacore; also called FcgRI; 1a; not shown: His tag attached to the C terminus
Protocol: (§1) The heterodimerized antibodies He Abs in which one of the H chains was introduced with an alteration were assayed for their binding activities to each activating FcγR and inhibitory FcγR according to the method described in Example 4. […] The activating FcγRs in FIGS. 26, 27, 28, and 29 are FcγRIa, FcγRIIa (R), FcγRIIa (H), and FcγRIIIa, respectively.
(§2) Analysis of interaction between objective antibody and the FcγR was carried out using Biacore T100 (GE Healthcare). HBS-EP+ (GE Healthcare) was used as the running buffer, and the measurement temperature was set to 25° C. Chips produced by immobilizing the antigen peptide by the amine coupling method to a Series S Sencor Chip CM5 (GE Healthcare), or alternatively, chips produced by allowing preliminarily biotinylated antigen peptides to interact with and immobilize onto a Series S Sensor Chip SA (certified) (GE Healthcare) were used. Antibodies of interest were captured onto an antigen peptide-immobilized chip, and allowed to interact to each FcγR diluted with running buffer. To regenerate and repeatedly use the chip, the antibodies captured on the chip were washed off by reacting 10 mM glycine-HCl, pH 1.5.

FcγRIIb = molecular target: T1, FcγRIIb; test: as above
Protocol: as §1, §2

T2 sequence (P12314 16-292): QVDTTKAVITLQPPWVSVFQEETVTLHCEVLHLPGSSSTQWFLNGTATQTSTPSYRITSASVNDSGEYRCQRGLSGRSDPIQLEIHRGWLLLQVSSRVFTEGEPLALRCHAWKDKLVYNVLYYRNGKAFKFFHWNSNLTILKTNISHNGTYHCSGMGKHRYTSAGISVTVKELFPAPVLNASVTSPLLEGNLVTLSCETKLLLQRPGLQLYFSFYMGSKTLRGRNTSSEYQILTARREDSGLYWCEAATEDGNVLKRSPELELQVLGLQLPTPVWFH

| Binder | He/Con_1a (FcγRIa) | He/Con_2b (FcγRIIb) |
| --- | --- | --- |
| GpH7-A5/GpH7-B3 variant L328_07I/GpL16-k0 (antibody, human IgG1, kappa, Heterodimerized anti-glypican-3 IgG1; alteration in the GpH7-B3 chain only; also called He Ab) heavy 1: not shown heavy 2: not shown light: DIVMTQSPLSLPVTPGEPASISCQASESLVHSNRNTYLHWYLQKPGQSPQLLIYKVSNRFSGVPDRFSGSGSGTDFTLKISRVEAEDVGVYYCSQNTHVPPTFGQGTKVEIERTVAAPSVFIFPPSDEQLKSGTASVVCLLNNFYPREAKVQWKVDNALQSGNSQESVTEQDSKDSTYSLSSTLTLSKADYEKHKVYACEVTHQGLSSPVTKSFNRGEC | 99.4 % of control (=100) | 160 % of control (=100) |
| GpH7-A5/GpH7-B3 variant N325_08L/GpL16-k0 (antibody, human IgG1, kappa, Heterodimerized anti-glypican-3 IgG1; alteration in the GpH7-B3 chain only; also called He Ab) heavy 1: not shown heavy 2: not shown light: DIVMTQSPLSLPVTPGEPASISCQASESLVHSNRNTYLHWYLQKPGQSPQLLIYKVSNRFSGVPDRFSGSGSGTDFTLKISRVEAEDVGVYYCSQNTHVPPTFGQGTKVEIERTVAAPSVFIFPPSDEQLKSGTASVVCLLNNFYPREAKVQWKVDNALQSGNSQESVTEQDSKDSTYSLSSTLTLSKADYEKHKVYACEVTHQGLSSPVTKSFNRGEC | 97.5 % of control (=100) | 197 % of control (=100) |
| GpH7-A5/GpH7-B3 variant N325_01G/GpL16-k0 (antibody, human IgG1, kappa, Heterodimerized anti-glypican-3 IgG1; alteration in the GpH7-B3 chain only; also called He Ab) heavy 1: not shown heavy 2: not shown light: DIVMTQSPLSLPVTPGEPASISCQASESLVHSNRNTYLHWYLQKPGQSPQLLIYKVSNRFSGVPDRFSGSGSGTDFTLKISRVEAEDVGVYYCSQNTHVPPTFGQGTKVEIERTVAAPSVFIFPPSDEQLKSGTASVVCLLNNFYPREAKVQWKVDNALQSGNSQESVTEQDSKDSTYSLSSTLTLSKADYEKHKVYACEVTHQGLSSPVTKSFNRGEC | 97.1 % of control (=100) | 101 % of control (=100) |
| GpH7-A5/GpH7-B3 variant N325_04F/GpL16-k0 (antibody, human IgG1, kappa, Heterodimerized anti-glypican-3 IgG1; alteration in the GpH7-B3 chain only; also called He Ab) heavy 1: not shown heavy 2: not shown light: DIVMTQSPLSLPVTPGEPASISCQASESLVHSNRNTYLHWYLQKPGQSPQLLIYKVSNRFSGVPDRFSGSGSGTDFTLKISRVEAEDVGVYYCSQNTHVPPTFGQGTKVEIERTVAAPSVFIFPPSDEQLKSGTASVVCLLNNFYPREAKVQWKVDNALQSGNSQESVTEQDSKDSTYSLSSTLTLSKADYEKHKVYACEVTHQGLSSPVTKSFNRGEC | 93.2 % of control (=100) | 143 % of control (=100) |
| GpH7-A5/GpH7-B3 variant L328_13S/GpL16-k0 (antibody, human IgG1, kappa, Heterodimerized anti-glypican-3 IgG1; alteration in the GpH7-B3 chain only; also called He Ab) heavy 1: not shown heavy 2: not shown light: DIVMTQSPLSLPVTPGEPASISCQASESLVHSNRNTYLHWYLQKPGQSPQLLIYKVSNRFSGVPDRFSGSGSGTDFTLKISRVEAEDVGVYYCSQNTHVPPTFGQGTKVEIERTVAAPSVFIFPPSDEQLKSGTASVVCLLNNFYPREAKVQWKVDNALQSGNSQESVTEQDSKDSTYSLSSTLTLSKADYEKHKVYACEVTHQGLSSPVTKSFNRGEC | 99 % of control (=100) | 149 % of control (=100) |

The remaining lines, values ahead:

| He/Con_1a (FcγRIa) | He/Con_2b (FcγRIIb) | Binder |
| --- | --- | --- |
| 93.4 % of control (=100) | 114 % of control (=100) | GpH7-A5/GpH7-B3 variant P331_07I/GpL16-k0 (antibody, human IgG1, kappa, Heterodimerized anti-glypican-3 IgG1; alteration in the GpH7-B3 chain only; also called He Ab) heavy 1: not shown heavy 2: not shown light: DIVMTQSPLSLPVTPGEPASISCQASESLVHSNRNTYLHWYLQKPGQSPQLLIYKVSNRFSGVPDRFSGSGSGTDFTLKISRVEAEDVGVYYCSQNTHVPPTFGQGTKVEIERTVAAPSVFIFPPSDEQLKSGTASVVCLLNNFYPREAKVQWKVDNALQSGNSQESVTEQDSKDSTYSLSSTLTLSKADYEKHKVYACEVTHQGLSSPVTKSFNRGEC |
| 93.8 % of control (=100) | 169 % of control (=100) | GpH7-A5/GpH7-B3 variant N325_20W/GpL16-k0 (antibody, human IgG1, kappa, Heterodimerized anti-glypican-3 IgG1; alteration in the GpH7-B3 chain only; also called He Ab) heavy 1: not shown heavy 2: not shown light: DIVMTQSPLSLPVTPGEPASISCQASESLVHSNRNTYLHWYLQKPGQSPQLLIYKVSNRFSGVPDRFSGSGSGTDFTLKISRVEAEDVGVYYCSQNTHVPPTFGQGTKVEIERTVAAPSVFIFPPSDEQLKSGTASVVCLLNNFYPREAKVQWKVDNALQSGNSQESVTEQDSKDSTYSLSSTLTLSKADYEKHKVYACEVTHQGLSSPVTKSFNRGEC |
| 93.6 % of control (=100) | 102 % of control (=100) | GpH7-A5/GpH7-B3 variant P331_06M/GpL16-k0 (antibody, human IgG1, kappa, Heterodimerized anti-glypican-3 IgG1; alteration in the GpH7-B3 chain only; also called He Ab) heavy 1: not shown heavy 2: not shown light: DIVMTQSPLSLPVTPGEPASISCQASESLVHSNRNTYLHWYLQKPGQSPQLLIYKVSNRFSGVPDRFSGSGSGTDFTLKISRVEAEDVGVYYCSQNTHVPPTFGQGTKVEIERTVAAPSVFIFPPSDEQLKSGTASVVCLLNNFYPREAKVQWKVDNALQSGNSQESVTEQDSKDSTYSLSSTLTLSKADYEKHKVYACEVTHQGLSSPVTKSFNRGEC |
| 99.9 % of control (=100) | 123 % of control (=100) | GpH7-A5/GpH7-B3 variant P238_20W/GpL16-k0 (antibody, human IgG1, kappa, Heterodimerized anti-glypican-3 IgG1; alteration in the GpH7-B3 chain only; also called He Ab) heavy 1: not shown heavy 2: not shown light: DIVMTQSPLSLPVTPGEPASISCQASESLVHSNRNTYLHWYLQKPGQSPQLLIYKVSNRFSGVPDRFSGSGSGTDFTLKISRVEAEDVGVYYCSQNTHVPPTFGQGTKVEIERTVAAPSVFIFPPSDEQLKSGTASVVCLLNNFYPREAKVQWKVDNALQSGNSQESVTEQDSKDSTYSLSSTLTLSKADYEKHKVYACEVTHQGLSSPVTKSFNRGEC |
